Patent US20070104647A1

Experiments:
[1] = biological target: Full length HA-tagged Ovr115 (Met1-Leu435) expressed on transfected LMTK or 293F cells (human) (UniProt Q9NRS4); experiment: FACS, Ovr115-HA LMTK cells
[2] = biological target: Full length HA-tagged Ovr115 (Met1-Leu435) expressed on transfected LMTK or 293F cells (human) (UniProt Q9NRS4); experiment: FACS, Ovr115-transfected 293F cells
[3] = biological target: Full length HA-tagged Ovr115 (Met1-Leu435) expressed on transfected LMTK or 293F cells (human) (UniProt Q9NRS4); experiment: FACS on Ovr115 transfected mouse LMTK cells, PE conjugate alone without MAb [panel A]
[4] = biological target: transferrin receptor on 293F and HT29 cells (UniProt P02786); experiment: cell-based or functional assay
UniProt P02786, sequence (P02786 whole entry): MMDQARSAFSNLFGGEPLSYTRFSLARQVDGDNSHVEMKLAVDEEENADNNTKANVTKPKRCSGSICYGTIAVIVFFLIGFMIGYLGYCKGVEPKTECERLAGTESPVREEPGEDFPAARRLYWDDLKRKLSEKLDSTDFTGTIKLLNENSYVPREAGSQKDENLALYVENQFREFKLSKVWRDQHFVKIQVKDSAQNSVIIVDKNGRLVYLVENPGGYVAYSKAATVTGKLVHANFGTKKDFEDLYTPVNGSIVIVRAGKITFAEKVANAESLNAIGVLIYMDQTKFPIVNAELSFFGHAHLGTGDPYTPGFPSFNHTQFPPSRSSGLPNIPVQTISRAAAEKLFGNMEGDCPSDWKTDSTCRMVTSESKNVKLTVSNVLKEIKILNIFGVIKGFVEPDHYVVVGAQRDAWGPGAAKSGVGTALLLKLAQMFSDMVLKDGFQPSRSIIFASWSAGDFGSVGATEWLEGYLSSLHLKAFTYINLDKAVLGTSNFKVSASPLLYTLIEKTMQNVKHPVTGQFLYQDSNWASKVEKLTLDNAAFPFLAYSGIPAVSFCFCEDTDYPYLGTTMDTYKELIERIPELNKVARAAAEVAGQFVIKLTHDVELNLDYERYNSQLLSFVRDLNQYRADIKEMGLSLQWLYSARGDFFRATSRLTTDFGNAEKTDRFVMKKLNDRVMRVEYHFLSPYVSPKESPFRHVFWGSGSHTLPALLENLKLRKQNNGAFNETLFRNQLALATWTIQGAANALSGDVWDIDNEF

[5] = biological target: transferrin receptor on 293F and HT29 cells (UniProt P02786); experiment: FACS, non-transfected 293F cells
[6] = biological target: transferrin receptor on 293F and HT29 cells (UniProt P02786); experiment: FACS, Ovr115-transfected 293F cells

Substance | % cells positive [1] | MFI [1] | % cells positive [2] | MFI [2] | Mean of Fluorescence [3] | Percent Growth Inhibition Compared to Wells with Medium Alone; HT29; MAb (0.08 µg/mL) + MAb Zap saporin conjugate [4] | Percent Growth Inhibition Compared to Wells with Medium Alone; HT29; MAb (0.4 µg/mL) + MAb Zap saporin conjugate [4] | Percent Growth Inhibition Compared to Wells with Medium Alone; HT29; MAb (2 µg/mL) + MAb Zap saporin conjugate [4] | % cells positive [5] | MFI [5] | % cells positive [6] | MFI [6]
phycoerythrin (PE) conjugated donkey anti-mouse IgG Fc antibody | 0.6% | 2.15 | 1.7% | 0.567 | 0.57 | – | – | – | – | – | – | –
Anti-HA MAb (Covance) (antibody) | 61% | 19 | – | – | – | – | – | – | – | – | – | –
5E9C11 (antibody) | – | – | – | – | – | 18% | 58% | 35% | 99.8% | 54.3 | 99.4% | 71.1
